Experimental data from the domain aggregation screens of Martell et al. (2025).

Test: soluble fraction after stress (log2 fold change); higher = more stays soluble; pooled small domains, quantitative proteomics
Settings: stress: 75 degC
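Further: 20 min heating vs room temperature control held 20 min.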

## HMSSNLSLHKEGNKIVILGLEGKSVIEVYDLMGRLLSSQTNYNPKQEITLLQPVIIRVTDTQQTKSFKV
  soluble fraction (log2): -1.5

## HMSSNLTVFTRNNAIIVNSDVVRKLNVFAVDGRLVRSVDLSVGENVINNISRGMYLIDKQKVVV
  soluble fraction (log2): -2.77

## HMSSPDMSLLYSELDVKDSGQIVTILEQRNIPYEVRNNGSQIYIPSNNVQRIRLSLAQEGLPSG
  soluble fraction (log2): 0.111

## HMSSPTAKATGSSVNIRKSASTGAAVLKRVEKGTVLEAVSISDGWVKVKYSGVTGYVSADYVKVSGL
  soluble fraction (log2): -2.19

## HMSSQGQNTKTGTVTASALYVRSGAGTNYSQIGYLLKNTKVEIVGQTGSWYKIKFGSGTGYVSSKYIK
  soluble fraction (log2): -2.69

## HMSSQLETTFATLIGKRVSIRLHDPEGGFRDILGHLESPYSLRNRHGNLIEFAHDQIFLWREVI
  soluble fraction (log2): -1.82

## HMSSRNLIIFYDSPQAENALLATAERYGAILLHHYRNLHGIAVAIPADKDMAQAVTYFSRQPGVRQV
  soluble fraction (log2): -2.56

## HMSSSKVAISQFEELVDQGQVREVVIEGSTATGTTAAGRRFAAEIPPGGMELFLSKLDDAGTTYEYSPP
  soluble fraction (log2): 0.822

## HMSSSYTEMQLDKLKKLLEKETLLSSEKSELKSLIHDFDKIPEVVSPLIVGEYLRLKNKYIAVINSLE
  soluble fraction (log2): -1.25

## HMSSSYTEMQLERFKELLNKETLLSSEKNELKNLISDFDKISEIVSPLVVGAYLQLKNEHIETINSLG
  soluble fraction (log2): -0.507

## HMSSTAIQAMIRRLIDGEDPRKPLSDARLAETLKASGVPVARRTVAKYRESMSIPSSQDRLRI
  soluble fraction (log2): -0.577

## HMSSTSTKTQNIVHIVKSGETLSAIASKYGVSVDNIKKWNNLSSDKLSIGQKLKINPTTQTSS
  soluble fraction (log2): 0.29

## HMSSVEEILQTLGGRIRTQRLAQGISQQVLADRAGLSLGAVRQLEGSGQSGLDTLVRVLFVLGIVDEL
  soluble fraction (log2): -2.27

## HMSSVHTMEVKSTTQIKVLDENKNLSSYYSMKNPVSFNYRLFFLNQDELKKLQEDLKTNNDIQSIDIKYA
  soluble fraction (log2): -0.484

## HMSTALTPLTTREREVLALMAEGLTNSGIAARLVLTDRTVETHVSRILHKLGLGETTTNEHRRVLAVLRYL
  soluble fraction (log2): -1.72

## HMSTASPEELRQTPERRRLIEYLREHGGHGRTSEIAAALGIDDSTASRLLRRLADNGLIVRTQYGEYTLLQ
  soluble fraction (log2): -0.184

## HMSTEAVVMSSSVSVKSSPDKASTDLFVLHEGTKVRTVSELGDWREIVIADGKKGWVEARTIET
  soluble fraction (log2): 0.756

## HMSTEPLALVGKTGIAATVLRPSGRIEVDDKYYDAVSLGAFIEKGEMVNIVKYENLQLYVAKL
  soluble fraction (log2): -2.18

## HMSTFAQNLRALMEKRGVSQNELARSAGLTQSAINKILTGKTKQPGIDTTEAIARVLNVSVAQLIYT
  soluble fraction (log2): -1.4

## HMSTFTPYLVKVTTSVLNIRKGAGTNYGTNGSIRDMGTYTIVAEADGQGASKWGKLKSGAGWISLDYTKK
  soluble fraction (log2): -2.33

## HMSTILERLIMLQEQSGMNQKQLQKELGLSNSAFSDWKKGKGRPSVEALVRFSEFFGVSMDWLAFG
  soluble fraction (log2): -2.27

## HMSTKRQKELLEYVDRFITEHGYGPSYREIMNAIGYKSVSTVAIHIDGLIAKGYLRKRDNSARSLEVV
  soluble fraction (log2): -1.17

## HMSTKYSSNIISLVKGLMEEDQYKDLMGPPLKKEIIKKVESITDTFPYKFDKDDKEFIVKKVLISLRK
  soluble fraction (log2): -1.77

## HMSTLKSALDEIPGIGAARKRALLNHFGSTRVISSVGVKDLEQVEGVSKKIALLIYGYFHDK
  soluble fraction (log2): -2.57

## HMSTLSIHIPDKFAGQRLDQALAELYSQFSRSRLQQWLNDGELLVDGKSVKANKKVLGGEFIQILK
  soluble fraction (log2): -1.24

## HMSTPENLGGRNTAKARISWLENGVKQELESDFPAAEVVKLSSRFGGEVPELTVIRPSLEDIYLKMIG
  soluble fraction (log2): -0.00898

## HMSTPLVATLRKRIIDGHYPPGERLAEIPVAEAFGVSRTPVRLAFRTLEQEGLLEKAGKRGYAVRA
  soluble fraction (log2): -0.164

## HMSTQVPDVKERSQEEARSILESAGFKVTPAVKTEDSADIAKDMVTKTDPAAGQSVPKGTTITIYVSS
  soluble fraction (log2): 0.126

## HMSTRLIGEIGVVTKDLGAGLKENGSIQIGREEWPAETKDMEHIPMGTRVKVIHIEGTRLVVEA
  soluble fraction (log2): -0.561

## HMSTSRAEIIAFLKSNPSSEYKHELETKLDEMDWAEAVKGNSEESFLAYKQRQPNGTHNGEADEKLKVLLV
  soluble fraction (log2): -0.0423

## HMSTVISPLPGNIIKVLVPEGKSVKRGDTILTIESMKMENSIKAAYDGVVKKIYVQQAQIVMQGDPLFDL
  soluble fraction (log2): -2.86

## HMSVALSENIKTRRKALKMSQEYVAEQLDISRQAVAKWEAGKSEPTTENLVKLAALFEMSVSELVE
  soluble fraction (log2): -0.969

## HMSVDDVALRLEFGPSDAEALAFVHRHGAILSETTDRDTGVVSVHVRLSEADAGRFNQRYGV
  soluble fraction (log2): -0.0968

## HMSVDDYLKFSGSGTYWNTQDRGKTYLVNGQQRPLRDKEYLPDVMHRHVIDFITKHRDRPFYIYYSM
  soluble fraction (log2): 0.173

## HMSVDVEGNQRIPTEQVLSELRDVGVSFGKRVSGLNADTIRNQMIINNDEIAWLGVNVRGSRVYVEITERI
  soluble fraction (log2): 0.125

## HMSVERIEPPLPLIDTLLALRDALERPLSREENAFLSRRFAGGATRAQIDALAAQFRGAAAAESKV
  soluble fraction (log2): 0.0516

## HMSVETSDLLPLIEQVLSLNPDKVKEYQNGKKGLLGFFMGQIKQTAGVAIDVGTLKPLLEDALHKDL
  soluble fraction (log2): -0.861

## HMSVEYRKTLSDGNEYQIVKEKNGYVIKKSLNEGLDYLEPMKNRKYYSSYSQAFKRLNLIAKEVNINEGYD
  soluble fraction (log2): -0.511

## HMSVFGMEIGKTTEAEAGRMYRLNKEQLNPYSGGYQYSVNPKAIDFSGLEQVTLIFDEKKVLVYVQAV
  soluble fraction (log2): 0.144
